Data on 2 molecules can be found in US20240309081A1 (QYUNS THERAPEUTICS, published 2024).

For test [1], the target named is T1, human interleukin-33 (hIL-33) (human, UniProt O95760 112-270).
T1 construct: The immunogen was bought from Novoprotein; also called recombinant human interleukin-33
T1 sequence: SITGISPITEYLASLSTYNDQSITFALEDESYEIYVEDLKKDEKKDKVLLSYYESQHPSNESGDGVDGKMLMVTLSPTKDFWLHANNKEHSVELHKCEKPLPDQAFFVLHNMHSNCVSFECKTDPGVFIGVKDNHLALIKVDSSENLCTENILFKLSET
Put plainly: SPR (Biacore T200, 25 C), antibody captured on Protein A chip, antigen as analyte, 1:1 model. Here is the method:
Commercialized Protein A chip was used to immobilize an appropriate amount of antibody by capture method, so that the Rmax was about 50 RU, and the capture flow rate was 10 μl/min. The antigen was diluted by gradient, the flow rate of the instrument was switched to 30 μl/min, and the antigen flowed through the reference channel and the channel of the immobilized antibody in order of concentration from low to high, and the buffer was used as a negative control. After each binding and dissociation, the chip was regenerated with glycine at pH 1.5. The 1:1 binding model in Kinetics option was selected for fitting using the analysis software that comes with the instrument, and the binding rate constant kₐ, the dissociation rate constant kd and the equilibrium dissociation constant KD value of the antibody were calculated.
In addition, the affinity of QX007N (HZD78-70) and Etokimab/ANB020, a monoclonal antibody against human interleukin-33 developed by AnaptysBio were compared, and the detection method for known antibodies was the same as that for QX007N. Particularly, Etokimab/ANB020 was self-made by constructing an expression plasmid according to the APE4909 sequence provided by the patent WO2015106080A2, and transiently transfecting ExpiCHO-S cells.

Test [2] deals with T1, human interleukin-33 (hIL-33). Briefly: cell-based or functional assay.
The target in test [3] is T2, natural human interleukin-33 (human) (UniProt O95760).
T2 sequence (looked up): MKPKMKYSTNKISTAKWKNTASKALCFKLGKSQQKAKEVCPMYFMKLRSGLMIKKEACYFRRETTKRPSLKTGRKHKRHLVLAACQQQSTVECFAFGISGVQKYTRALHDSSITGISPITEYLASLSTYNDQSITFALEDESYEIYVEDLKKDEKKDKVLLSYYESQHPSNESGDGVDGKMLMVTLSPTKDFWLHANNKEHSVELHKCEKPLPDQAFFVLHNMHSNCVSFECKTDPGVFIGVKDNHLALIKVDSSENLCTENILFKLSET
Briefly: cell-based or functional assay.

Test [4] addresses T3, interleukin-33 of rhesus monkeys (rhesus monkey, UniProt F7DLG4 112-269).
T3 construct: also called rhesus monkey IL-33
T3 sequence: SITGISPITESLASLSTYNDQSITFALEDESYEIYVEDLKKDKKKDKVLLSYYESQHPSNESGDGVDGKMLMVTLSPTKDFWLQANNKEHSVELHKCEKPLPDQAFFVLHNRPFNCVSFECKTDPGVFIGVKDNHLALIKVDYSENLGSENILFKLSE
Put plainly: SPR (Biacore T200), antibody captured on Protein A chip. On the technique in general: Surface plasmon resonance follows binding to a sensor surface in real time, without labels.

B1: Etokimab/ANB020 (antibody, INN chains, looked up, V domains shown)
VH: QVQLMQSGAEVKKPGASVKVSCKASGYTFTSYWMHWVRQAPGQGLEWMGTIYPRNSNTDYNQKFKARVTMTRDTSTSTVYMELSSLRSEDTAVYYCARPLYYYLTSPPTLFWGQGTLVTVSS
VL: DIQLTQSPSFLSASVGDRVTITCKASQDVGTAVAWYQQKPGKAPKLLIYWASTRHTGVPSRFSGSGSGTEFTLTISSLQPEDFATYYCQQAKTYPFTFGSGTKLEIK
In test [1], B1 came in with a Kd of 0.869 nM, a koff of 0.000369 s⁻¹ and a kon of 424000 M⁻¹ s⁻¹. Further, in test [2], the inhibition of NF-KB/AP-1 signal transduction in HEK Blue IL-33 cells induced by recombinant human interleukin-33 (SEAP, OD630nm) amounted to 6.05 ng/mL; the neutralization of IFN-gamma release from human whole blood induced by recombinant human interleukin-33 was found to be 31.9 ng/mL; the neutralization of IL-5 release from KU812 cells induced by recombinant human interleukin-33 (IL-5 ELISA) was 44 ng/mL. In test [3], this molecule gave an inhibition of NF-KB/AP-1 signal transduction in HEK Blue IL-33 cells induced by natural human interleukin-33 (SEAP, OD630nm) of 2.5 ng/mL.

B2: QX007N (HZD78-70) (antibody, human IgG1, kappa, V domains shown)
VH: EVQLVESGGGLVQPGGSLRLSCAASGFSLSSYHMIWVRQAPGKGLEWVGVIYPNSNIYYATWAKGRFTISRDNSKNTLYLQMNSLRAEDTAVYYCARTIYVHVYSALSIWGQGTLVTVSS
VL: AFQMTQSPSSVSASVGDRVTITCQASESVLNEVSWYQQKPGKAPKLLIYFASKLASGVPSRFSGSGSGTDFTLTISSLQPEDFATYYCQQDWSMDNIDNAFGGGTKVEIKR
notes: Humanized rabbit antibody, expressed in ExpiCHO-S cells and purified with Protein A; also called humanized 78#
B2: the binding result in test [4] is “no binding”. Further, in test [1], binding was put at a Kd of 1.23 nM, the koff was 0.000481 s⁻¹ and the kon came out at 392000 M⁻¹ s⁻¹.

As usually defined, the Kd is the equilibrium constant for the complex coming apart. Higher therefore signals a looser complex. In general, koff refers to the first-order rate constant of dissociation. High values mean a short-lived complex, low ones a long-lived complex. By kon is commonly meant the rate constant with which the complex forms. A low value points to slower complex formation.
